Key:
Format in all cases: physicochemical
[1] = Dynamic surface tension versus compressed surface area, modified Wilhelmy Surface Balance (Langmuir Trough); settings: peptide 0.5 mg/ml (~2% of solids) in DPPC:PG:PA 68:22:9; 675 ug phospholipid on 445 sq. cm trough; recorded during seven complete cycles
Method: (§1) Prior to testing for surface activity, the synthetic fragments were admixed with lipids. A lipid mixture consisting of 68% 1,2-dipalmitoyl-sn-phosphatidylcholine (DPPC), 22% egg phosphatidylglycerol (PG) and 9% palmitic acid on a weight basis was prepared by dissolving the lipids in chloroform:methanol (2:1). The required amount of peptide fragment was dissolved in methanol and heated to 60° C. for 10 minutes. The peptide solution was then added to the lipid mixture prewarmed to 45° C. for ten minutes. The samples were mixed at 45° C. by gentle swirling at 100 revolutions per minute on a Buchi rotary evaporator. The organic solvents were then evaporated at 45° C. by increasing the vacuum in 100 torr increments every five minutes until most of the solvent was removed. Final vacuum was between 150-200 torr. Following evaporation, the solids were then suspended in 10% ethanol prewarmed to 45° C. and which was prepared using deionized distilled water. The suspension was gently mixed with vortexing and placed back under vacuum at 600 torr with a repeat of the vacuum ramping process. Final vacuum for the ethanol removal was 50 torr. Following complete removal of ethanol the suspension was diluted with aqueous 0.15M NaCl at 45° C. to yield an admixture with a phospholipid concentration of 25 mg/ml. The peptide/lipid admixtures were formed at final peptide concentrations of 0.5 mg/ml (equivalent to 2% of solids concentration).
The dynamic surface tension lowering properties of the peptide/lipid admixtures were studied using a modified Wilhelmy Surface Balance (Langmuir Trough). The instrument consists of an all Teflon trough and movable Teflon ribbon (dam) barrier system which completely contains and defines a variable surface area. Surface area was varied through the use of a constant rate reversible 3-phase motor to drive the Teflon barrier. A Cahn 2000 electrobalance (Cahn Instruments, Cerittos, Calif.) with a sandblasted 1 cm platinum plate and stainless steel hangdown wire was employed to determine the surface tension at the liquid-air interface. The entire apparatus was situated in a thermostated incubator set at 45° C. Surface area-surface tension measurements were made by adding 950 ml of 0.15M NaCl to the trough. Subphase temperature was controlled during the measurements at 36°-38° C.
For each experiment 27 ul of peptide/lipid admixture was applied in a random array of 13 droplets to the surface of the temperature controlled subphase and allowed to spread spontaneously for 3 minutes. (The 27 ul application corresponds to 675 ug of phospholipid). The trough surface area was then cycled from a maximum (445 sq. cm) to a minimum (178 sq. cm) surface area and back to maximum at a cycling rate of 3 cycles/min (compression ratio 2.5:1). The dynamic surface tension versus surface area was recorded for 7 complete compression-expansion cycles for each application.

[2] = Adsorption capacity, modified Wilhelmy surface balance; settings: measured after three (3) minutes spreading time; peptide 0.5 mg/ml (~2% of solids)
Method: as §1
A procedure similar to that described by Notter, et al., Pediatric Res. 16, 515-519 (1982) was employed to determine the absorption rate in the absence of diffusion resistance. The modified Wilhelmy surface balance as described above was used. However, instead of using a Langmuir trough, a round Teflon dish (5.1 cm diameter) was employed. The subphase, 70 ml of 0.15M NaCl, was allowed to equilibrate to 37° C. in the incubator and was continuously stirred with a Teflon coated magnetic stirrer. An aliquot of the peptide/lipid fragment admixture containing 5 mg of total phospholipid was dispersed in 10 ml of 0.15M NaCl by vortexing for 10 seconds. This dispersion was then added to the saline subphase. Surface tension lowering was monitored using a strip chart recorder connected to the electro-balance output.

[3] = Relative surface activity by dilution studies on the modified Wilhelmy Balance-Langmuir Trough; settings: 675 ug phospholipid
Method: For the purpose of this comparison "surface activity" is defined as follows: For any given peptide concentration, the admixture is required to result in a minimum dynamic surface tension of less than 10 dynes/cm for each of seven consecutive expansion/compression cycles.
Initially each of the admixtures was formulated so as to contain an equal number of moles of the individual peptide as is contained in a 0.5 mg/mL admixture of SP-B(53-78). […] Thereafter, each of these admixtures was diluted with the standard lipid mixture as described in Example 4, so as to provide doubling dilutions of the equimolar "parent" stock peptide admixture. The lipid concentration in all cases was maintained at 25 mg/ml.
Assessment of relative surface activity was conducted on the modified Wilhemy-Langmuir Surface Balance. For these studies a standard volume of 27 ul of each admixture, corresponding to a total phospholipid mass of 675 ug, was applied to the Langmuir Trough with maximum dimensions of 445 sq. cm.

[4] = Pulsating Bubble Surfactometer (PBS) surface tension; settings: after 5 minutes pulsation (100 cycles); 1 mg/ml phospholipid, peptide 2% of phospholipids; 0.15M NaCl; 37° C.; 20 cycles/minute; SD in parenthesis
Method: as §1
The PBS equipment (Electronetics, Buffalo, N.Y.) used was essentially equivalent to that described in detail by G. Enhorning, J. Appld. Physiol. 43, 198-203, (1977). Recordings were made of the pressure gradient across the wall of a small air bubble, communicating with ambient air by means of a narrow chimney stack, but otherwise entirely surrounded by a 40 ul volume of the peptide/lipid admixture. The admixture concentration employed for these studies was 1 mg/ml total phospholipid (0.02 mg/ml total peptide) and the diluent was 0.15M NaCl.
Immediately prior to loading the sample chamber, the diluted samples were sonicated for 15 seconds to remove any gas nuclei.
The pressure drop across the air-water interface was measured during pulsation by a pressure transducer, and the corresponding surface tension was determined at minimum and maximum bubble size through the application of Young's law and the Laplace equation. Measurements were all made at 37° C. and the bubble pulsed at 20 cycles/minute to render respectively a maximum (1.1 mm) and a minimum (0.8 mm) bubble diameter. (This compression/expansion corresponds to a 50% change in the surface area of the air-water interface).

B1: SP-B(1-78): complete SP-B surfactant protein having 78 amino acid residues, used as control (protein, UniProt P07988 201-279, looked up)
Pulmonary …: FPIPLPYCWLCRALIKRIQAMIPKGALAVAVAQVCRVVPLVAGGICQCLAERYSVILLDTLLGRMLPQLVCRLVLRCSM
modifications: Pulmonary surfactant-associated protein B
notes: complete SP-B surfactant protein having 78 amino acid residues, used as control
- Surface Tension Maximum [1]: 44.0 dynes/cm
- Surface Tension Minimum [1]: 0.3 dynes/cm
- Adsorption (equilibrium adsorption surface tension) [2]: 37.5 dynes/cm
- Mean Minimum Surface Tension, relative peptide concentration 1/2 ([3]; 1/2 dilution of equimolar stock with lipid mixture): 1.5 mN/m
- Mean Minimum Surface Tension, relative peptide concentration 1/4 ([3]; 1/4 dilution of equimolar stock with lipid mixture): 4.5 mN/m
- Mean Minimum Surface Tension, relative peptide concentration 1/8 ([3]; 1/8 dilution of equimolar stock with lipid mixture): 21.5 mN/m
- Mean Minimum Surface Tension, relative peptide concentration Equimolar ([3]; equimolar to 0.5 mg/mL SP-B(53-78), 445 sq. cm trough): 1.5 mN/m
- Mean Minimum Surface Tension, relative peptide concentration 2% ([3]; peptide 2% of solids (0.5 mg/ml), 445 sq. cm trough): 1.6 mN/m
- Surface tension Maximum (maximum bubble size) [4]: 50.6 (1.7) dyne/cm
- Surface tension Minimum (minimum bubble size) [4]: 4.7 (0.3) dyne/cm

Source: US5753621A, “Pulmonary surfactant protein fragments” (Abbott Laboratories, priority 1995, dated 1998)
